Tested on: human IgE
Experiment: direct binding ELISA of IgE to mite allergen proteins and peptides
Conditions: data not shown

| Substance | IgE reactivity, candidate peptides |
| --- | --- |
| DF I-22.2: VAATESAYLAYRNTSLDLSEQELVD, amino acid residues 40-64 of Der f I | negative |
| DP I-21.2: Der p I peptide; unique peptide (SINGNAPAEIDLRQMRTVTPIRMQ) | negative |
| DP I-23.31: modified Der p I peptide; unique peptide (DEEGVVQESYYRYVAREQSCRRPNAE) | negative |
| DP I-26.6: modified Der p I peptide; unique peptide (DEGIKDLDAFRHYDGRTIIQRDNGYE) | negative |
| DP II-20.9: modified Der p II peptide; unique peptide (DQVDVKDCANHEIKKVLVPGCHGSE) | negative |
| DP II-22.14: DKELEAVFEANQNTKTAKAE; unique peptide | negative |

Same assay, conditions: plasma of 19 mite-allergic patients and pool of 18; Example XV

| Substance | IgE binding (ELISA), modified peptides |
| --- | --- |
| DP I-23.31: modified Der p I peptide; unique peptide (DEEGVVQESYYRYVAREQSCRRPNAE) | No plasma samples contained IgE |
| DP II-20.9: modified Der p II peptide; unique peptide (DQVDVKDCANHEIKKVLVPGCHGSE) | No plasma samples contained IgE |
| DP II-22.14: DKELEAVFEANQNTKTAKAE; unique peptide | No plasma samples contained IgE |

Tested on: mast cells or basophils
Experiment: histamine release
Type: cell-based, human
Conditions: data not shown
Procedure: To determine whether a peptide which binds IgE results in the release of mediators, a histamine release assay can be performed using standard reagents and protocols obtained for example, from Amac, Inc. (Westbrook, Me.). Briefly, a buffered solution of a peptide to be tested is combined with an equal volume of whole heparinized blood from an allergic subject. After mixing and incubation, the cells are pelleted and the supernatants are processed and analyzed using a radioimmunoassay to determine the amount of histamine released.

| Substance | histamine release |
| --- | --- |
| DF I-22.2: VAATESAYLAYRNTSLDLSEQELVD, amino acid residues 40-64 of Der f I | negative |
| DP I-21.2: Der p I peptide; unique peptide (SINGNAPAEIDLRQMRTVTPIRMQ) | negative |
| DP I-23.31: modified Der p I peptide; unique peptide (DEEGVVQESYYRYVAREQSCRRPNAE) | negative |
| DP I-26.6: modified Der p I peptide; unique peptide (DEGIKDLDAFRHYDGRTIIQRDNGYE) | negative |
| DP II-20.9: modified Der p II peptide; unique peptide (DQVDVKDCANHEIKKVLVPGCHGSE) | negative |
| DP II-22.14: DKELEAVFEANQNTKTAKAE; unique peptide | negative |

Tested on: not listed separately
Experiment: pH-stability profile / solution stability (HPLC)
Type: physicochemical
Conditions: pH 6 to pH 8
Procedure: (§1) 50 mM sodium phosphate stock solutions:
(§2) Stock solution A: 0.66 g […] of monobasic sodium phosphate monohydrate U.S.P. and 50 mg EDTA disodium dihydrate, U.S.P. were dissolved in 100 mL of WFI. The solution was filtered through a 0.2 micron filter
(§3) Stock solution B: 0.71 g […] of dibasic sodium phosphate U.S.P. were disolved in 100 ml WFI. The solution was filtered through a 0.2 micron filter.
(§4) 2. Initial peptide dispersions
(§5) Dispersion A: 3.0 mg of each candidate peptide,DPI-21.2 (SEQ. ID. NO. 28), DFI-22.2 (SEQ. ID. NO. 93), DFI-23.31(SEQ. ID. NO. 165), DFI-26.6 (SEQ. ID. NO. 168), DPII-20.9 (SEQ. ID. NO. 169), DPII-22.14 (SEQ. ID. NO. 180) and DPII-25.15 (SEQ. ID. NO. 188), was weighed out separately and placed in separate 1.5 mL eppendoff vials with 600 μL of stock solution A. The composition was agitated for 1 seconds to mix well.
as §5, with “Dispersion B:” for “Dispersion A:”, “each peptide, DPI-21.2” for “each candidate peptide,DPI-21.2”, “solution B.” for “solution A.”, “The mixture” for “The composition”, “for 5” for “for 1”
(§6) Dispersions A and B were sonicated for 2 minutes for good homogeneity. A small volume was pipetted from each dispersion into a labeled eppendoff vial according to the following volume ratio:
(§7) The resultant solutions/suspensions were stored in the dark at about 22° C.±2 for 24 hours without agitation. The solutions were filtered and filtrates were analyzed for pH and peptide concentration.
(§8) The concentration of filtered peptide solutions was determined by HPLC analysis. In this experiment, the solubility of peptide at each pH is defined as the amount of peptide remaining in solution after filtration through a membrane filter having a 0.2 micrometer pore size. The extent of degradation of peptides was estimated by calculating the percent of total degradant peak area over the total peak area.
The pH-stability profiles for each peptide DPI-21.2 (SEQ. ID. NO. 28), DFI-22.2 (SEQ. ID. NO. 93), DFI-23.31(SEQ. ID. NO. 165), DFI-26.6 (SEQ. ID. NO. 168), DPII-20.9 (SEQ. ID. NO. 169), DPII-22.14 (SEQ. ID. NO. 180) and DPII-25.15 (SEQ. ID. NO. 188) in equal concentration combination at 3, 2, and 1 mg/ml per peptide and prepared in duplicate as described above with one set stored at about 5° C. for 24 hours and one set stored at about 22° C.±2 for 24 hours, were calculated and tabulated as a function of the percentage of total of degradant peak area (FIG. 38).

| Substance | stability (in words) |
| --- | --- |
| DF I-22.2: VAATESAYLAYRNTSLDLSEQELVD, amino acid residues 40-64 of Der f I | acceptable solution stability |
| DP I-21.2: Der p I peptide; unique peptide (SINGNAPAEIDLRQMRTVTPIRMQ) | acceptable solution stability |
| DP I-23.31: modified Der p I peptide; unique peptide (DEEGVVQESYYRYVAREQSCRRPNAE) | acceptable solution stability |
| DP I-26.6: modified Der p I peptide; unique peptide (DEGIKDLDAFRHYDGRTIIQRDNGYE) | acceptable solution stability |
| DP II-20.9: modified Der p II peptide; unique peptide (DQVDVKDCANHEIKKVLVPGCHGSE) | acceptable solution stability |
| DP II-22.14: DKELEAVFEANQNTKTAKAE; unique peptide | acceptable solution stability |
| DP II-22: QLEAVFEANQNTKTAKIEIKASIDGLEV | stable |

Same assay, conditions: pH 6 to pH 8; listed as SEQ. ID. NO. 207

| Substance | stability (in words) |
| --- | --- |
| DP II-22: QLEAVFEANQNTKTAKIEIKASIDGLEV | nor did it meet the stability requirement |

Tested on: not listed separately
Experiment: pH-solubility profile
Type: physicochemical
Conditions: aqueous buffer; superior solubility = >3 mg/ml at pH 6-8
Procedure: as §1, §2, §3, §4, §5
as §5, with “Dispersion B:” for “Dispersion A:”, “each peptide, DPI-21.2” for “each candidate peptide,DPI-21.2”, “solution B.” for “solution A.”, “The mixture” for “The composition”, “for 5” for “for 1”
as §6, §7, §8
The pH values with respect to the solubility values was plotted and are shown in FIG. 37 for each respective peptide. As shown in the solubility curve for each peptide as represented in FIG. 37, peptides DPI-21.2 (SEQ. ID. NO. 28), DFI-22.2 (SEQ. ID. NO. 93), DFI-23.31 (SEQ. ID. NO. 165), DFI-26.6 (SEQ. ID. NO. 168), DPII-20.9 (SEQ. ID. NO. 169), DPII-22.14 (SEQ. ID. NO. 180) and DPII-25.15 (SEQ. ID. NO. 188) are each soluble at greater than 3 mg/ml at a pH in the pH range of pH 6 to pH 8.

| Substance | solubility (in words) |
| --- | --- |
| DP II-22.14: DKELEAVFEANQNTKTAKAE; unique peptide | increased by an order of magnitude |
| DP II-22: QLEAVFEANQNTKTAKIEIKASIDGLEV | did not meet the "superior solubility" requirement of 3 mg/ml |

Same assay, conditions: at a pH in the range pH 6 to pH 8

| Substance | solubility |
| --- | --- |
| DF I-22.2: VAATESAYLAYRNTSLDLSEQELVD, amino acid residues 40-64 of Der f I | greater than 3 mg/ml |
| DP I-21.2: Der p I peptide; unique peptide (SINGNAPAEIDLRQMRTVTPIRMQ) | greater than 3 mg/ml |
| DP I-23.31: modified Der p I peptide; unique peptide (DEEGVVQESYYRYVAREQSCRRPNAE) | greater than 3 mg/ml |
| DP I-26.6: modified Der p I peptide; unique peptide (DEGIKDLDAFRHYDGRTIIQRDNGYE) | greater than 3 mg/ml |
| DP II-20.9: modified Der p II peptide; unique peptide (DQVDVKDCANHEIKKVLVPGCHGSE) | greater than 3 mg/ml |
| DP II-22.14: DKELEAVFEANQNTKTAKAE; unique peptide | greater than 3 mg/ml |

From patent US5968526A, “T cell epitopes of the major allergens from Dermatophagoides (house dust mite)” (Immulogic Pharamaceutical Corporation, priority 1995, dated 1999)
